Measured values taken from the RNAGym collection of RNA variant scans (doi:10.7554/elife.80360).

B1: CPEB3 Ribozyme (parent)
chain: GGGGGCCACAGCAGAAGCGUUCACGUCGCGGCCCCUGUCAGAUUCUGGUGAAUCUGCGAAUUCUGCUGU

Variants of: B1
Test: self-cleavage, relative activity (ratio to wild type); higher = more cleavage; co-transcriptional
With GGGGGCCACAGCAGAAGCGUUCACGUCGCUGCCCCUGUCAGAUUCUGGUGAAUCUGCGAAUCCUGCUGU [G30U U62C] the self-cleavage was 0.211. With GGGGGCCACAGCAGAAGCGUUCACGUCGCUGCCCCUGUCAGAUUCUGGUGAAUCUGCGAAUGCUGCUGU [G30U U62G] the self-cleavage was 0.19. In the case of GGGGGCCACAGCAGAAGCGUUCACGUCGCUGCCCCUGUCAGAUUCUGGUGAAUCUGCGAACUCUGCUGU [G30U U61C], the self-cleavage is reported as 0.243. GGGGGCCACAGCAGAAGCGUUCACGUCGCGACCCCGGUCAGAUUCUGGUGAAUCUGCGAAUUCUGCUGU [G31A U36G] showed a self-cleavage of 0.268. Variant GGGGGCCACAGCAGAAGCGUUCACGUCGCGACCCCCGUCAGAUUCUGGUGAAUCUGCGAAUUCUGCUGU [G31A U36C] has a self-cleavage of 0.669. GGGGGCCACAGCAGAAGCGUUCACGUCGCGACCCCAGUCAGAUUCUGGUGAAUCUGCGAAUUCUGCUGU [G31A U36A] showed a self-cleavage of 0.218. Work on GGGGGCCACAGCAGAAGCGUUCACGUCGCGACCCCUGUCAGAUUCUGGUGAAUCUGCGAAUUCUGCUAU [G31A G68A] yielded a self-cleavage of 1.03. For GGGGGCCACAGCAGAAGCGUUCACGUCGCGACCCCUGUCAGAUUCUGGUGAAUCUGCGAAUUCUGCUCU [G31A G68C], the self-cleavage was 1.02. Work on GGGGGCCACAGCAGAAGCGUUCACGUCGCGACCCCUGUCAGAUUCUGGUGAAUCUGCGAAUUCUGCUUU [G31A G68U] yielded a self-cleavage of 1. For GGGGGCCACAGCAGAAGCGUUCACGUCGCGACCCCUGUGAGAUUCUGGUGAAUCUGCGAAUUCUGCUGU [G31A C39G], the self-cleavage was 0.733. GGGGGCCACAGCAGAAGCGUUCACGUCGCGACCCCUGUUAGAUUCUGGUGAAUCUGCGAAUUCUGCUGU [G31A C39U] showed a self-cleavage of 0.589. In the case of GGGGGCCACAGCAGAAGCGUUCACGUCGCGACCCCUGUCAGAUUCUGGUGACUCUGCGAAUUCUGCUGU [G31A A52C], the self-cleavage is reported as 0.82. In the case of GGGGGCCACAGCAGAAGCGUUCACGUCGCGACCCCUGUCAGAUCCUGGUGAAUCUGCGAAUUCUGCUGU [G31A U44C], the self-cleavage is reported as 0.749. Work on GGGGGCCACAGCAGAAGCGUUCACGUCGCGACCCCUGUCAGAUGCUGGUGAAUCUGCGAAUUCUGCUGU [G31A U44G] yielded a self-cleavage of 0.585. GGGGGCCACAGCAGAAGCGUUCACGUCGCGACCCCUGUCAGAUACUGGUGAAUCUGCGAAUUCUGCUGU [G31A U44A] gave a self-cleavage of 0.808. For GGGGGCCACAGCAGAAGCGUUCACGUCGCGACCCCUGUCAGAUUCUGGUGAAUCUCCGAAUUCUGCUGU [G31A G56C], the self-cleavage was 0.523. Variant GGGGGCCACAGCAGAAGCGUUCACGUCGCGACCCCUGUCAGAUUCUGGUGAAUCUACGAAUUCUGCUGU [G31A G56A] has a self-cleavage of 0.702. GGGGGCCACAGCAGAAGCGUUCACGUCGCGACCCCUGUCAGAUUCUGGUGAAUCUUCGAAUUCUGCUGU [G31A G56U] gave a self-cleavage of 0.767. GGGGGCCACAGCAGAAGCGUUCACGUCGCGACCCCUGUCAGAUUCUGGUGAAUUUGCGAAUUCUGCUGU [G31A C54U] showed a self-cleavage of 0.793. GGGGGCCACAGCAGAAGCGUUCACGUCGCGACCCCUGUCAGAUUCUGGUGAAUGUGCGAAUUCUGCUGU [G31A C54G] gave a self-cleavage of 0.436. Variant GGGGGCCACAGCAGAAGCGUUCACGUCGCGACCCCUGUCAGAUUCUGGUGAAUAUGCGAAUUCUGCUGU [G31A C54A] has a self-cleavage of 0.489. GGGGGCCACAGCAGAAGCGUUCACGUCGCGACCCCUGUCAGAUUCUUGUGAAUCUGCGAAUUCUGCUGU [G31A G47U] gave a self-cleavage of 0.915. GGGGGCCACAGCAGAAGCGUUCACGUCGCGACCCCUGUCAGAUUCUGGUGAAACUGCGAAUUCUGCUGU [G31A U53A] gave a self-cleavage of 0.554. For GGGGGCCACAGCAGAAGCGUUCACGUCGCGACCCCUGUCAGAUUCUGGUGAACCUGCGAAUUCUGCUGU [G31A U53C], the self-cleavage was 0.58. In the case of GGGGGCCACAGCAGAAGCGUUCACGUCGCUGCCCCUGUCAGAUUCUGGUGAAGCUGCGAAUUCUGCUGU [G30U U53G], the self-cleavage is reported as 0.241. In the case of GGGGGCCACAGCAGAAGCGUUCACGUCGCUGCCCCUGUCAGAUUCUGGUGAACCUGCGAAUUCUGCUGU [G30U U53C], the self-cleavage is reported as 0.276. GGGGGCCACAGCAGAAGCGUUCACGUCGCGACCCCUGUCAGAUUCUGGUGAAUCUGCGAGUUCUGCUGU [G31A A60G] gave a self-cleavage of 0.475. In the case of GGGGGCCACAGCAGAAGCGUUCACGUCGCGACCCCUGUCACAUUCUGGUGAAUCUGCGAAUUCUGCUGU [G31A G41C], the self-cleavage is reported as 0.349. GGGGGCCACAGCAGAAGCGUUCACGUCGCGACCCCUGUCAUAUUCUGGUGAAUCUGCGAAUUCUGCUGU [G31A G41U] showed a self-cleavage of 0.512. With GGGGGCCACAGCAGAAGCGUUCACGUCGCGACCCCUGUCAGAUUCUGGUAAAUCUGCGAAUUCUGCUGU [G31A G50A] the self-cleavage was 0.95. With GGGGGCCACAGCAGAAGCGUUCACGUCGCGACCCCUGUCAGAUUCUGGUUAAUCUGCGAAUUCUGCUGU [G31A G50U] the self-cleavage was 0.889. For GGGGGCCACAGCAGAAGCGUUCACGUCGCGACCCCUGUCAGAUUCUGGUCAAUCUGCGAAUUCUGCUGU [G31A G50C], the self-cleavage was 0.84. Work on GGGGGCCACAGCAGAAGCGUUCACGUCGCUGCCCCUGUCAGAUUCUGGUGAAUCCGCGAAUUCUGCUGU [G30U U55C] yielded a self-cleavage of 0.287. GGGGGCCACAGCAGAAGCGUUCACGUCGCUGCCCCUGUCAGAUUCUGGUGAAUCAGCGAAUUCUGCUGU [G30U U55A] showed a self-cleavage of 0.304. GGGGGCCACAGCAGAAGCGUUCACGUCGCUGCCCCUGUCAGAUUCUGGUGAAUCGGCGAAUUCUGCUGU [G30U U55G] showed a self-cleavage of 0.232. GGGGGCCACAGCAGAAGCGUUCACGUCGCGACCCCUGUCAGAUUCUGGCGAAUCUGCGAAUUCUGCUGU [G31A U49C] showed a self-cleavage of 0.938. GGGGGCCACAGCAGAAGCGUUCACGUCGCGACCCCUGUCAGAUUCUGGGGAAUCUGCGAAUUCUGCUGU [G31A U49G] showed a self-cleavage of 0.812. GGGGGCCACAGCAGAAGCGUUCACGUCGCGACCCCUGUCAGAUUCUGGAGAAUCUGCGAAUUCUGCUGU [G31A U49A] gave a self-cleavage of 0.886. With GGGGGCCACAGCAGAAGCGUUCACGUCGCUGCCCCUGUCAGAUUCUGGUGAAUCUGCGAAUUCAGCUGU [G30U U64A] the self-cleavage was 0.288.
